In CN104774268A:
pKd: −log10 of the molar value.

Legend:
[1] = biological target: EGFR on EGFR-positive cells (HT29; HCT116; MDA-MB-453) (human) (UniProt P00533); assay: flow cytometry on HT29 cells, MFI titration fitted in GraphPad Prism
[2] = biological target: CD3 on CD3-positive Jurkat cells (human); assay: flow cytometry on Jurkat cells, MFI titration fitted in GraphPad Prism

Which results are given for “EGFR×CD3 MSBODY M1003 (monovalent unit from Vectibix, single-chain unit anti-CD3 L2K ScFv-Fc) (bispecific antibody)”?
pKd [1]: 9.19; pKd [2]: 7.84

What does the source list for “EGFR×CD3 MSBODY M1001 (monovalent unit from Erbitux, single-chain unit anti-CD3 L2K ScFv-Fc) (bispecific antibody)”?
pKd [1]: 9.19; pKd [2]: 8.06
